Publication PMC9712106

Columns and labels:
[1] = target: PfPTRAMP (residues 25 to 309) with a C-terminal His-tag (P. falciparum); experiment: BLI; PfRipr or PfPTRAMP at 20 μg/ml immobilised on Anti-Penta-His (His1K) biosensors, twofold dilution series of PTRAMP–CSS or PfCSS; 25 °C, PBS pH 7.4, 0.1% BSA, 0.02% Tween-20; 1:1 model
[2] = target: PfRipr (residues 20 to 1086) (P. falciparum) (UniProt O97302); experiment: as above

Substance	Kd [1]	Kd [2]
PfCSS (residues 20 to 290) (domain or fragment)	19 µM	1.1 µM
PTRAMP–CSS heterodimer (disulfide-linked PfPTRAMP 42–309 and PfCSS 20–290) (complex)		3.6 µM
